Key:
[1] = target: T1, cynomolgus CD3 (on cynomolgus pan-T cells) (cynomolgus, UniProt Q95LI5 22-198); assay: flow cytometry, cynomolgus pan-T cells
T1 construct: whole, on cells
Protocol: (§1) After washing twice with 200 μL of phosphate buffered saline (PBS) by centrifugation at 500×g for 5 minutes at room temperature, the cells were resuspended in 100 μL of Live/Dead fixable green working buffer (ThermoFisher Scientific, Cat No: L23101; one vial of Live/Dead fixable green powder was dissolved into 50 μL of DMSO and 1 μL of dissolved Live/Dead fixable green was added to 1 mL of PBS to prepare the working buffer). After 15-minutes of incubation at room temperature, the cells were washed twice with 200 μL of PBS by centrifugation at 500×g for 5 minutes at room temperature and resuspended in […] of 10% goat serum in BD staining buffer (BD Biosciences, Cat No: 554657). […] The plates were then covered with foil to avoid direct light and incubated for 60 minutes at 4° C. […] After incubating for 30 minutes at 4° C., the cells were washed twice with 200 μL of PBS by centrifugation at 500×g for 5 minutes at room temperature and resuspended into 100 μL of fixation buffer (BioLegend, Cat No: 420801). The samples were then analyzed on a flow cytometer for binding signal using FlowJo software. ROR and CD3 binding EC₅₀s (concentration vs mean fluorescence intensity (MFI)) for reference molecules and test bispecific TCEs were obtained using 4-parameter non-linear regression curve fitting in GraphPad Prism.

human ROR1 (on cells) [2] = target: T2, human ROR1 (on cells) (human, UniProt Q01973 30-937); assay: flow cytometry, 4T1 cells overexpressing human ROR1
T2 construct: Entry given with its signal peptide; also called hROR1; huROR1

human ROR1 (on cells) [3] = target: T2, human ROR1 (on cells); assay: cell-based or functional assay
human ROR1 (on cells) [4] = target: T2, human ROR1 (on cells); assay: cell-based or functional assay; remark: listed apart in the source
human ROR1 (on cells) [5] = target: T2, human ROR1 (on cells); assay: cell-based or functional assay; remark: listed apart in the source
human ROR1 (on cells) [6] = target: T2, human ROR1 (on cells); assay: cell-based or functional assay; remark: listed apart in the source
[7] = target: T3, mouse ROR1 (on 4T1 cells engineered to overexpress it) (mouse, UniProt Q9Z139 30-937); assay: cell-based or functional assay
human ROR1 (on cells) [8] = target: T2, human ROR1 (on cells); assay: cell-based or functional assay; remark: listed apart in the source
human ROR1 (on cells) [9] = target: T2, human ROR1 (on cells); assay: flow cytometry, MDA-MB-231 cells
Protocol: as §1

human ROR1 (on cells) [10] = target: T2, human ROR1 (on cells); assay: cell-based or functional assay; remark: listed apart in the source
human ROR1 (on cells) [11] = target: T2, human ROR1 (on cells); assay: cell-based or functional assay; remark: listed apart in the source
[12] = target: T4, human CD3 (on Jurkat T cells or human CD8+ T cells) (human, UniProt P07766 23-207; P09693 23-182; P04234 22-171; P20963 22-164); assay: flow cytometry, Jurkat T cells
T4 construct: Entries are printed with signal peptides; also called huCD3; CD3ε
Protocol: as §1

[13] = target: T3, mouse ROR1 (on 4T1 cells engineered to …); assay: flow cytometry, 4T1 cells overexpressing mouse ROR1
[14] = target: T3, mouse ROR1 (on 4T1 cells engineered to …); assay: cell-based or functional assay; remark: listed apart in the source
human ROR1 (on cells) [15] = target: T2, human ROR1 (on cells); assay: cell-based or functional assay; remark: listed apart in the source
[16] = target: T4, human CD3 (on Jurkat T cells or human …); assay: flow cytometry; reference: 69A02 and 82H02 TCEs in Format 1A
Protocol: (§2) The plates were then covered with foil to avoid direct light and incubated for 60 minutes at 4° C. […] After incubating for 30 minutes at 4° C., the cells were washed twice with 200 μL of PBS by centrifugation at 500×g for 5 minutes at room temperature and resuspended into 100 μL of fixation buffer (BioLegend, Cat No: 420801). The samples were then analyzed on a flow cytometer for binding signal using FlowJo software. ROR and CD3 binding EC₅₀s (concentration vs mean fluorescence intensity (MFI)) for reference molecules and test bispecific TCEs were obtained using 4-parameter non-linear regression curve fitting in GraphPad Prism.

[17] = target: T5, chimeric CD3ε of human CD3 knock-in C57BL/6 mice (ectodomain of human CD3, transmembrane and cytosolic … (human; mouse, UniProt P07766 23-126; P22646 109-189); assay: flow cytometry, T cells of huCD3 knock-in C57BL/6 mice
T5 construct: extracellular domain;domain: transmembrane and cytosolic domains; On T cells isolated from the knock-in mice; also called human/mouse chimeric CD3; huCD3 knock-in
Protocol: as §2

[18] = target: T4, human CD3 (on Jurkat T cells or human …); assay: flow cytometry; reference: 69A02 and 82H02 TCEs in Format 1B
Protocol: as §2

[19] = target: T4, human CD3 (on Jurkat T cells or human …); assay: flow cytometry, human CD8+ T cells; reference: 82H02 TCE #1 and #3
Protocol: as §2, with “After 15-minutes of incubation at room temperature, the cells were washed twice with 200 μL of PBS by centrifugation at 500×g for 5 minutes at room temperature and resuspended in […] of 10% goat serum in BD staining buffer (BD Biosciences, Cat No: 554657). […] The plates” for “The plates”

[20] = target: T4, human CD3 (on Jurkat T cells or human …); assay: flow cytometry, human CD8+ T cells
Protocol: as §2, with “After 15-minutes of incubation at room temperature, the cells were washed twice with 200 μL of PBS by centrifugation at 500×g for 5 minutes at room temperature and resuspended in […] of 10% goat serum in BD staining buffer (BD Biosciences, Cat No: 554657). […] The plates” for “The plates”

T4 sequence (P07766 23-207 limits assumed, chain 1 of 4): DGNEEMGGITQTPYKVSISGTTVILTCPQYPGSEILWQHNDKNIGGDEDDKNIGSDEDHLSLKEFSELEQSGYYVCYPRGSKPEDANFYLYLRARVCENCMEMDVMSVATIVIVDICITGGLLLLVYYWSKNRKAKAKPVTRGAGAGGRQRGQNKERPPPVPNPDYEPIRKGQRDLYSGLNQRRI
T4 sequence (P09693 23-182 limits assumed, chain 2 of 4): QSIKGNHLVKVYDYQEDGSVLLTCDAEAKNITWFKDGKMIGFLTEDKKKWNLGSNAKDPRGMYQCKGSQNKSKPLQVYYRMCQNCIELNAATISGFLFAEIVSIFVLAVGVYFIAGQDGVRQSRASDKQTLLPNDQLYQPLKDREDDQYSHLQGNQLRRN
T4 sequence (P04234 22-171 limits assumed, chain 3 of 4): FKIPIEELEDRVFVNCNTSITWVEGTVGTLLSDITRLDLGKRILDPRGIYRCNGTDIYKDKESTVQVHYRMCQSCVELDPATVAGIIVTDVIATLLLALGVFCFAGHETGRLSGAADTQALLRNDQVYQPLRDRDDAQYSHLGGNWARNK
T4 sequence (P20963 22-164 limits assumed, chain 4 of 4): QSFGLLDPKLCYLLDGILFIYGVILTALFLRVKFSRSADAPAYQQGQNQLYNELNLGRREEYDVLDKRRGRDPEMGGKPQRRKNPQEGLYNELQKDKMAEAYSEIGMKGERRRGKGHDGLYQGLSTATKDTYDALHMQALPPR
T5 sequence (P07766 other isoform, or with tags, fused parts or gaps mutant): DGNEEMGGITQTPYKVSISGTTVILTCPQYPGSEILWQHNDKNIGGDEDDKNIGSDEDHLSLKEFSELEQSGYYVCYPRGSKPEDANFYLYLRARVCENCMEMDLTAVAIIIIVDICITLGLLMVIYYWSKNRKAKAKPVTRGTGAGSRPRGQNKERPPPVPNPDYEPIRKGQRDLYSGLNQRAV
T1 sequence (Q95LI5 22-198): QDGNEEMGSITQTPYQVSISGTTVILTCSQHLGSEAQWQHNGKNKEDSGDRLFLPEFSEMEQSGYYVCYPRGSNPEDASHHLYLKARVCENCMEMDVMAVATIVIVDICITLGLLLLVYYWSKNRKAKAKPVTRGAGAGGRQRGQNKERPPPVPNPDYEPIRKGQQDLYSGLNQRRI

B1: bispecific TCE 82H02 in Format 1B (bispecific antibody)
chain 1: EIVLTQSPATLSLSPGERATLSCRASQSVSSYLAWYQQKPGQAPRLLIYDASNRATGIPARFSGSGSGTDFTLTISSLEPEDFAVYYCQQRSNWPPCTFGQGTRLEIKGGGGSGGGGSGGGGSGGGGSEVQLLESGGGLVQPGGSLRLSCAASGFTFTSYAMSWVRQAPGKGLEWVSTISGSGGGTYYTDSVKGRFTISRDNSKNTLYLQMNSLRAEDTAVYYCAQGSSIFDYWGQGTLVTVSSEPKSSDKTHTCPPCPAPEAAGGPSVFLFPPKPKDTLMISRTPEVTCVVVDVSHEDPEVKFNWYVDGVEVHNAKTKPREEQYNSTYRVVSVLTVLHQDWLNGKEYKCKVSNKALGAPIEKTISKAKGQPFRPEVHLLPPSREEMTKNQVSLTCLARGFYPKDIAVEWESNGQPENNYKTTPSRQEPSQGTTTFAVTSKLTVDKSRWQQGNVFSCSVMHEALHNHYTQKTISLSPGKGGGGSGGGGSGGGGSGGGGSEVQLVESGGGLVQPGGSLRLSCAASGFTFNTYAMNWVRQAPGKGLEWVARIRSKYNNYATYYADSVKDRFTISRDDSKNTLYLQMNSLRAEDTAVYYCVRHGNFGNSYVSWFAYWGQGTMVTVSSASTKGPSVFPLAPSSKSTSGGTAALGCLVKDYFPEPVTVSWNSGALTSGVHTFPAVLQSSGLYSLSSVVTVPSSSLGTQTYICNVNHKPSNTKVDKKVEPKSC
chain 2: EIVLTQSPATLSLSPGERATLSCRASQSVSSYLAWYQQKPGQAPRLLIYDASNRATGIPARFSGSGSGTDFTLTISSLEPEDFAVYYCQQRSNWPPCTFGQGTRLEIKGGGGSGGGGSGGGGSGGGGSEVQLLESGGGLVQPGGSLRLSCAASGFTFTSYAMSWVRQAPGKGLEWVSTISGSGGGTYYTDSVKGRFTISRDNSKNTLYLQMNSLRAEDTAVYYCAQGSSIFDYWGQGTLVTVSSEPKSSDKTHTCPPCPAPEAAGGPSVFLFPPKPKDTLMISRTPEVTCVVVDVSHEDPEVKFNWYVDGVEVHNAKTKPREEQYNSTYRVVSVLTVLHQDWLNGKEYKCKVSNKALGAPIEKTISKAKGQPREPQVYTLPPPSEELALNELVTLTCLVKGFYPSDIAVEWLQGSQELPREKYLTWAPVLDSDGSFFLYSILRVAAEDWKKGDTFSCSVMHEALHNHYTQKSLDRSPGK
chain 3: QAVVTQEPSLTVSPGGTVTLTCRSSTGAVTTSNYANWVQQKPGQAPRGLIGGTNKRAPGTPARFSGSLLGGKAALTLSGVQPEDEAEYYCALWYSNLWVFGGGTKLTVLGQPKAAPSVTLFPPSSEELQANKATLVCLISDFYPGAVTVAWKADSSPVKAGVETTTPSKQSNNKYAASSYLSLTPEQWKSHRSYSCQVTHEGSTVEKTVAPTECS
[1]
  EC50: 34.9 nM
Human ROR1 (on cells) [2]
  EC50: 0.7 nM
Human ROR1 (on cells) [3]
  TDCC EC50, PBMCs + ROR1+ MDA-MB-231 cells: 0.0766 nM
Human ROR1 (on cells) [4]
  IFNγ release EC50, cynomolgus CD8+ T cells + ROR1+ MDA-MB-231: 0.191 nM
  IFNγ release EC50, human CD8+ T cells + ROR1+ MDA-MB-231: 0.104 nM
Human ROR1 (on cells) [5]
  TDCC EC50, cynomolgus CD8+ T cells + ROR1+ MDA-MB-231: 0.0548 nM
  TDCC EC50, human CD8+ T cells + ROR1+ MDA-MB-231: 0.0237 nM
Human ROR1 (on cells) [6]
  EC50 of target cell killing (TDCC), human CD8+ T cells + ROR1+ MDA-MB-231: 0.0581 nM
[7]
  IFNγ release EC50, hCD3 KI splenocytes: mROR1+ 4T1 cells: 0.14 nM
Human ROR1 (on cells) [8]
  IFNγ release EC50, hCD3 KI splenocytes: hROR1+ 4T1 cells: > 0.3 nM
Human ROR1 (on cells) [9]
  EC50: 2.23 nM
Human ROR1 (on cells) [10]
  EC50 of IFNγ release, human CD8+ T cells + ROR1+ MDA-MB-231: 0.0889 nM
Human ROR1 (on cells) [11]
  IFNγ release EC50, PBMCs + ROR1+ MDA-MB-231 cells: 7.12 nM
[12]
  EC50: 67.3 nM
[13]
  EC50: 2.01 nM
[14]
  TDCC EC50, hCD3 KI splenocytes: mROR1+ 4T1 cells: 0.0215 nM
Human ROR1 (on cells) [15]
  TDCC EC50, hCD3 KI splenocytes: hROR1+ 4T1 cells: 0.185 nM

B2: bispecific reference T cell-binder (bispecific antibody)
light: ELVLTQSPSVSAALGSPAKITCTLSSAHKTDTIDWYQQLQGEAPRYLMQVQSDGSYTKRPGVPDRFSGSSSGADRYLIIPSVQADDEADYYCGADYIGGYVFGGGTQLTVLGQPKAAPSVTLFPPSSEELQANKATLVCLISDFYPGAVTVAWKADSSPVKAGVETTTPSKQSNNKYAASSYLSLTPEQWKSHKSYSCQVTHEGSTVEKTVAPTECS
heavy 1: not shown
heavy 2: QEQLVESGGRLVTPGGSLTLSCKASGFDFSAYYMSWVRQAPGKGLEWIATIYPSSGKTYYATWVNGRFTISSDNAQNTVDLQMNSLTAADRATYFCARDSYADDGALFNIWGPGTLVTISSASTKGPSVFPLAPSSKSTSGGTAALGCLVKDYFPEPVTVSWNSGALTSGVHTFPAVLQSSGLYSLSSVVTVPSSSLGTQTYICNVNHKPSNTKVDKKVEPKSCDKTHTCPPCPAPEAAGGPSVFLFPPKPKDTLMISRTPEVTCVVVDVSHEDPEVKFNWYVDGVEVHNAKTKPREEQYNSTYRVVSVLTVLHQDWLNGKEYKCKVSNKALGAPIEKTISKAKGQPREPQVCTLPPSRDELTKNQVSLSCAVKGFYPSDIAVEWESNGQPENNYKTTPPVLDSDGSFFLVSKLTVDKSRWQQGNVFSCSVMHEALHNHYTQKSLSLSPGK
chain: QAVVTQEPSLTVSPGGTVTLTCGSSTGAVTTSNYANWVQEKPGQAFRGLIGGTNKRAPGTPARFSGSLLGGKAALTLSGAQPEDEAEYYCALWYSNLWVFGGGTKLTVLSSASTKGPSVFPLAPSSKSTSGGTAALGCLVKDYFPEPVTVSWNSGALTSGVHTFPAVLQSSGLYSLSSVVTVPSSSLGTQTYICNVNHKPSNTKVDKKVEPKSC
notes: ROR1 x CD3 bispecific of four polypeptides
[16]
  fold lower apparent binding affinity: ~15 fold
[17]
  EC50: 259 nM
[18]
  fold lower apparent binding affinity: ~4 fold
[19]
  fold lower affinity: ~100 fold
[12]
  EC50: 157 nM
[20]
  EC50: 266 nM

Source: US20240343800A1 (Merck KGaA, published 2024)
